{
  "source": "paper doi:10.1101/2025.11.21.689678",
  "about": "(bioRxiv, 2025)",
  "binders": {"B1": {"name": "His-Flag-ALKBH2 (natural protein, human, UniProt Q6NS38 1-261, looked up)", "chain": "MDRFLVKGAQGGLLRKQEEQEPTGEEPAVLGGDKESTRKRPRREAPGNGGHSAGPSWRHIRAEGLDCSYTVLFGKAEADEIFQELEKEVEYFTGALARVQVFGKWHSVPRKQATYGDAGLTYTFSGLTLSPKPWIPVLERIRDHVSGVTGQTFNFVLINRYKDGCDHIGEHRDDERELAPGSPIASVSFGACRDFVFRHKDSRGKSPSRRVAVVRLPLAHGSLLMMNHPTNTHWYHSLPVRKKVLAPRVNLTFRKILLTKK"}},
  "target": "MBP-MAGEA6 (human (cDNA from A549 cells), UniProt P43360 1-314)",
  "sequence (P43360 whole entry)": "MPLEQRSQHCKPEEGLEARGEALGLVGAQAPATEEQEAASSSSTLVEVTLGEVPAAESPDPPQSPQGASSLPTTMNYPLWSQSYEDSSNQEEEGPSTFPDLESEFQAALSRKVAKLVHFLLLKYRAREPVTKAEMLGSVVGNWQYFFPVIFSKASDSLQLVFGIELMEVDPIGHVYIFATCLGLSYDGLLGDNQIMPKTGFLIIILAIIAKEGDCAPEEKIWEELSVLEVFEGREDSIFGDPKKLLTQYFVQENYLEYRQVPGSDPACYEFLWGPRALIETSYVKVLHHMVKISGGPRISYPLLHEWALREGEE",
  "assay": "pull-down",
  "data": [
    {"binder": "B1", "values": [
      {"measurement": "binding result", "value": "binds"}
    ]}
  ]
}
